From patent US20180371066A1 (C2N DIAGNOSTICS, published 2018) come the findings set out here.

Experiment [1] has as its target T1, recombinant human Tau-412 protein (human, UniProt P10636-7 1-412).
T1 construct: Analyte of the SPR study; also called human tau (1N4R, 412 amino acids)
Kind of experiment: SPR Biacore T200, mAb captured on Protein A, Tau-412 analyte, 1-to-1 model, chip A11/1. As for the experimental part: (§1) Kinetic data was obtained at a flow rate of 40 μL/min to minimize any potential mass transfer effects. Two repeats of the blank (no antigen) and the 2.5 nM concentration of the analyte were programmed into the kinetic run in order to check the stability of both the surface and analyte over the kinetic cycles. For the initial kinetic runs, 2-fold dilutions of Tau-412 from 40 nM to 0.156 nM were run. For kinetic analysis and on subsequent runs, an analyte range of 20 nM to 0.625 nM was selected. This range covered multiple analyte concentrations both above and below the reported KD.
(§2) The association phase was monitored for 500 seconds to allow some of the higher concentrations of analyte to reach steady state. In order to observe a sufficient signal decrease (>10%) during the dissociation phase of the kinetic cycle, dissociation was measured for 1200 seconds. As discussed in Section 5, the Fcs were allowed to stabilize for 600 seconds after each regeneration step. The signal from the reference channel Fc1 was subtracted from that of Fc2, Fc3 and Fc4.
(§3) The kinetic parameters for the interaction of Tau-412 with the 7 mAbs as measured using the Protein A capture system on the Biacore T200 are shown in Table F-2. To correct for differences in the capture level of the antibody between each binding cycle, a local Rₘₐₓ parameter was used in the 1-to-1 binding model. Kinetic analysis was performed in three independent runs using fresh preparations of Tau-412 and antibody. Run 1 and runs 2+3 used different vials of the antigen Tau-412; therefore the reported errors associated with the mean response probably represent variation in preparation of the analyte and differences in assay set-up and run. From run 1 to runs 2+3, the amount of antibody injected was adjusted to try to get closer to the target 300 RU capture levels.

Experiment [2] has as its target T2, human tau (human, UniProt P10636 2-60).
T2 construct: also called soluble human tau; human tau protein
Kind of experiment: competition ELISA on plate-coated human tau against biotinylated HJ8.5; IC50 normalised to chimeric HJ8.5 (reference row); column External. (In general: ELISA stands for enzyme-linked immunosorbent assay.)

Experiment [3] addresses T2, human tau. The experiment can be described thus: competition ELISA on plate-coated human tau against biotinylated HJ8.5; IC50 normalised to chimeric HJ8.5 (reference row); column C2N Run 1.
For experiment [4], the target named is T1, recombinant human Tau-412 protein. Kind of experiment: SPR Biacore T200, mAb captured on Protein A, Tau-412 analyte, 1-to-1 model, chip A11/3. As for the experimental part: as §1, §2, §3
The target in experiment [5] is T2, human tau. The experiment can be described thus: competition ELISA on plate-coated human tau against biotinylated HJ8.5; IC50 normalised to chimeric HJ8.5 (reference row); column C2N Run 2.
Experiment [6] concerns the target T1, recombinant human Tau-412 protein. The experiment can be described thus: SPR Biacore T200, Protein A capture, mean of the Chimeric runs. As for the experimental part:
as §1, §2, §3

The target is the same in experiment [7]. Kind of experiment: SPR Biacore T200, mAb captured on Protein A, Tau-412 analyte, 1-to-1 model, chip A11/2. The method, then: as §1, §2, §3
On the technique in general: SPR reads the build-up and loss of mass on a sensor chip optically.

The target in experiment [8] is T2, human tau. Kind of experiment: competition ELISA on plate-coated human tau against biotinylated HJ8.5; IC50 normalised to chimeric HJ8.5; column C2N Run 1.
Experiment [9] concerns the target T2, human tau. The experiment can be described thus: competition ELISA on plate-coated human tau against biotinylated HJ8.5; IC50 normalised to chimeric HJ8.5; column External.
Experiment [10] deals with T1, recombinant human Tau-412 protein. The experiment can be described thus: SPR Biacore T200, Protein A capture, mean of the VH3/VK2 runs. The method, then: as §1, §2, §3
Target sequence in this assay (P10636 other isoform, or with tags, fused parts or gaps limits assumed): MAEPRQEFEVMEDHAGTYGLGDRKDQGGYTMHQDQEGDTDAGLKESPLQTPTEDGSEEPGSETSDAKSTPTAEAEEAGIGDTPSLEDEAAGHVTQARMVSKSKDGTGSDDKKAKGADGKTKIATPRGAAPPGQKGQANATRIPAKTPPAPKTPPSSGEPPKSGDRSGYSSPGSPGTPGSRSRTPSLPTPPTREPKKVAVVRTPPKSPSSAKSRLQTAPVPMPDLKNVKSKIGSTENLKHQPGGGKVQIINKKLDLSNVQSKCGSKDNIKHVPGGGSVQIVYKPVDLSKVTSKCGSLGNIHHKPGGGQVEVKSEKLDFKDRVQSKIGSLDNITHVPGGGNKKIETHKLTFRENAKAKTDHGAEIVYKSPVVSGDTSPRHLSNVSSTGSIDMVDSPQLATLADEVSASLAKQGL
The target of experiment [11] is T2, human tau. The experiment can be described thus: competition ELISA on plate-coated human tau against biotinylated HJ8.5; IC50 normalised to chimeric HJ8.5; column C2N Run 2.
Experiment [12] has as its target T1, recombinant human Tau-412 protein. The experiment can be described thus: SPR Biacore T200, Protein A capture, mean of the VH3/VK3 runs. As for the experimental part:
as §1, §2, §3

Residue numbers refer to the chain shown, from its start.

T2 sequence (P10636 2-60 limits assumed): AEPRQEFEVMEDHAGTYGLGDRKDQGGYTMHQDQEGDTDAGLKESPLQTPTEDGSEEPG

B1: chimeric HJ8.5 monoclonal antibody (antibody, V domains shown)
VH: EVKVEESGGGLVQPGGSMKLSCVVSGFTFSNYWVNWVRQSPEKGLEWVAQIRLKSDNYATHYEESVKGRFTISRDDSKSSVYLQMNNLRAEDSGIYYCTNWEDYWGQGTTLTVSS
VL: DIVLTQSPASLAVSLGQRATISCRASQSVSTSRYSYIHWYQQKPGQPPKLLIKYASNLESGVPARFSGSGSGTDFTLNIHPLEEEDAATYYCHHSWEIPLTFGAGTKLELK
notes: also called chimera; chimeric antibody
B1: the Kd was 2.23 nM in [1], 1.94 nM in [4], 1.99 nM in [6] and 1.79 nM in experiment [7]. For the same molecule, the koff turned out to be 0.0016 s⁻¹ in experiment [1], 0.0014 s⁻¹ in experiment [4], 0.00143 s⁻¹ in experiment [6] and 0.0013 s⁻¹ in [7]. Further, the kon in experiment [1] turned out to be 718000 M⁻¹ s⁻¹; in experiment [4] it was 723000 M⁻¹ s⁻¹; in experiment [6], 721000 M⁻¹ s⁻¹; in [7] it was 722000 M⁻¹ s⁻¹. For the same molecule, the “IC50 (Relative to Chimera)” value with human tau [2], in the experiment with human tau [3] and in the experiment with human tau [5] was 1 relative to Chimera each time.

B2: VH3/VK2 humanized anti-tau antibody (antibody, human IgG4 S228P, kappa, V domains shown)
VH: B1 VH with K3Q, E5V, M18L, S40A, E42G, S79N, N87S, S93T, G94A, L111V
VL: DIVLTQSPDSLAVSLGERATISCRASQSVSTSRYSYIHWYQQKPGQPPKLLIKYASNLESGVPSRFSGSGSGTDFTLNIHPLEPEDFATYYCHHSWEIPLTFGQGTKLEIKR
notes: Humanized variant of HJ8.5
With B2, the “IC50 (Relative to Chimera)” value in the experiment with human tau [8] is 0.81 relative to Chimera; with human tau [9], 0.94 relative to Chimera; with human tau [11] it was 1.28 relative to Chimera. Moreover, the figures for the dissociation constant (Kd) in experiment [10], in [1] and in experiment [7] were 1.88 nM, 2.08 nM and 1.67 nM, respectively. Moreover, the results for the off-rate (koff) in [10], in experiment [1] and in experiment [7] were 0.000515 s⁻¹, 0.000546 s⁻¹ and 0.000485 s⁻¹, respectively. For the same molecule, the kon in experiment [10] amounted to 276000 M⁻¹ s⁻¹; in [1], 262000 M⁻¹ s⁻¹; in [7], 290000 M⁻¹ s⁻¹.

B3: VH3/VK3 humanized anti-tau antibody (antibody, human IgG4 S228P, kappa)
heavy: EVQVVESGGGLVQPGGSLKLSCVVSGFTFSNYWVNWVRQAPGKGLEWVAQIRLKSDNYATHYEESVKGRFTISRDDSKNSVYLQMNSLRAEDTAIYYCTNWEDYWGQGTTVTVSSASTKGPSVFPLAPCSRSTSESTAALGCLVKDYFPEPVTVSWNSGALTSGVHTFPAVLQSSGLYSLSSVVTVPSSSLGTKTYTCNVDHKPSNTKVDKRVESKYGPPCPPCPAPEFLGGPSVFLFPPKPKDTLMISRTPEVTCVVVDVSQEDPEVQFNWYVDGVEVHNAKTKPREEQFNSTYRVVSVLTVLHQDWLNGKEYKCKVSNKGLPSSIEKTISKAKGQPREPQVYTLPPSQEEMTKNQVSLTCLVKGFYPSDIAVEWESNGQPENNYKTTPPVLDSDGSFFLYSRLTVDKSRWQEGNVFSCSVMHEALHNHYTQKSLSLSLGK
light: DIVLTQSPDSLAVSLGERATISCRASQSVSTSRYSYIHWYQQKPGQPPKLLIKYASNLESGVPSRFSGSGSGTDFTLTISSLQPEDFATYYCHHSWEIPLTFGQGTKLEIKRTVAAPSVFIFPPSDEQLKSGTASVVCLLNNFYPREAKVQWKVDNALQSGNSQESVTEQDSKDSTYSLSSTLTLSKADYEKHKVYACEVTHQGLSSPVTKSFNRGEC
notes: Humanized variant of HJ8.5
On to B3, for which the “IC50 (Relative to Chimera)” value in the experiment with human tau [8] is 0.84 relative to Chimera; in the experiment with human tau [9], 0.93 relative to Chimera; with human tau [11], 1.34 relative to Chimera. The Kd was found to be 2.2 nM in experiment [1], 1.92 nM in experiment [12] and 1.65 nM in experiment [7]. Moreover, the koff in experiment [1] was 0.000559 s⁻¹; in experiment [12], 0.000507 s⁻¹; in experiment [7], 0.000454 s⁻¹. In addition, the on-rate constant (kon) in [1] stood at 254000 M⁻¹ s⁻¹; in [12], 265000 M⁻¹ s⁻¹; in experiment [7], 276000 M⁻¹ s⁻¹.

The Kd is the equilibrium constant for the complex coming apart. What is called koff is the rate constant with which the complex falls apart. What is called kon is the rate constant with which the complex forms.
